Results from US20150098945A1 (Daiichi Sankyo, published 2015).
Substitutions are numbered along the chain they refer to.

Tests used:
Assay in all cases: flow cytometry on transfected HEK293 cells
[1] = target: T1, rat ROBO4 (pCI-raROBO4-transfected HEK293 cells) (rat, UniProt Q80W87 38-949 at identity 0.93))
T1 chain: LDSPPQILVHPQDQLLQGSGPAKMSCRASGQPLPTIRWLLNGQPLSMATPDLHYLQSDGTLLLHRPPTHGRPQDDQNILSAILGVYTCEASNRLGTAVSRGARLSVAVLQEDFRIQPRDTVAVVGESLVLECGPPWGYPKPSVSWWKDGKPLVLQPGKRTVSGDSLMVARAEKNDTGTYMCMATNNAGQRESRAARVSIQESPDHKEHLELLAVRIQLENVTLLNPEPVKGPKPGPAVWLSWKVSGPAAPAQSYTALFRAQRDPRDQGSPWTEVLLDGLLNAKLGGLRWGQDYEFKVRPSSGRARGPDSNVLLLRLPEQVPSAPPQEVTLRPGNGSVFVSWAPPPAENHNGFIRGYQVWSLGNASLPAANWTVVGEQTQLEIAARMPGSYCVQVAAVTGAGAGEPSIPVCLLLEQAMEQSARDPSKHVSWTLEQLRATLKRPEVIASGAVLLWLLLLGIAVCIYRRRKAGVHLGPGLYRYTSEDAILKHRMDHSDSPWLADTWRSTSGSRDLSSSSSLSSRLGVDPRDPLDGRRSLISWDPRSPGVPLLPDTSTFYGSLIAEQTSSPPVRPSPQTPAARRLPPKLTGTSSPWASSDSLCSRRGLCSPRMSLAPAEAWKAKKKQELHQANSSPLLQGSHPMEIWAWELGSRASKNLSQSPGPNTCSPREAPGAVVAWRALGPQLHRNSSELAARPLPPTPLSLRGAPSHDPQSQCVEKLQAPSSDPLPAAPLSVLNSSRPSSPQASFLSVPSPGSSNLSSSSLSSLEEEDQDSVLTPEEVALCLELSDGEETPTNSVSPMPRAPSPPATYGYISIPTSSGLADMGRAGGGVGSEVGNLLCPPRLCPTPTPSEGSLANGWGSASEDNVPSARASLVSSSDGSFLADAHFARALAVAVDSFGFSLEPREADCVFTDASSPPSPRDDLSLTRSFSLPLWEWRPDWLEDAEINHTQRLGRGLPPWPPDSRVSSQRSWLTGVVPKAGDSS

[2] = target: T2, N-terminal FLAG-tagged cynomolgus monkey ROBO4, cynoROBO4-1 (pCI-FLAG-cynoROBO4-1) (cynomolgus monkey, UniProt Q8WZ75 28-1007 (human entry))
T2 chain: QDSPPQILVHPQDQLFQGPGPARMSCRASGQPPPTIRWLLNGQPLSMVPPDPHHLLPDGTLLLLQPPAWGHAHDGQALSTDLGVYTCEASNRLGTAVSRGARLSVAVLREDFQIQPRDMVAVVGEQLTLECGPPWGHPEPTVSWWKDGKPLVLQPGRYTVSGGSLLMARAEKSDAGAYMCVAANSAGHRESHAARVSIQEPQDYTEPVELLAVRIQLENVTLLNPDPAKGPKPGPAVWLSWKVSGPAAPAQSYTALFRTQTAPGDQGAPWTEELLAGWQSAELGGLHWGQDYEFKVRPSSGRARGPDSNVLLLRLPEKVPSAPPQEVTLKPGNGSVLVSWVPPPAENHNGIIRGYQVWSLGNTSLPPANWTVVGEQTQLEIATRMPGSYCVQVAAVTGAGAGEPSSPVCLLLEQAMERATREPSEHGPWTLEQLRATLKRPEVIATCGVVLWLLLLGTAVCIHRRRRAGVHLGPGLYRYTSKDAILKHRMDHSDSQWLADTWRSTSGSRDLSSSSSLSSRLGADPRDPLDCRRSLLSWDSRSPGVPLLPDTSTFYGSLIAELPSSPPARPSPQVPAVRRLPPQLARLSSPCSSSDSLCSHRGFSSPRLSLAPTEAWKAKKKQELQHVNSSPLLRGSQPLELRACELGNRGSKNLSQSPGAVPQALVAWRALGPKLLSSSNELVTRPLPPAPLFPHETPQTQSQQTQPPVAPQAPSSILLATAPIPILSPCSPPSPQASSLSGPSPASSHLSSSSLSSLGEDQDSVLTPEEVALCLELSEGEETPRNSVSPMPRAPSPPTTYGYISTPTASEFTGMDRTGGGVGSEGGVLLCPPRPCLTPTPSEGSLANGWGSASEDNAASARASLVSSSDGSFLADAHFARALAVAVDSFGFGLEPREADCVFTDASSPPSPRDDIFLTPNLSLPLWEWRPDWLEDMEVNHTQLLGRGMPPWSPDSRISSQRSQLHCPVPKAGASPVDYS

[3] = target: T3, N-terminal FLAG-tagged cynomolgus monkey ROBO4, cynoROBO4-2 (pCI-FLAG-cynoROBO4-2) (cynomolgus monkey, UniProt Q8WZ75 28-1007 (human entry))
T3 chain: T2 chain with W69R, A175T, H192R, P423L, P549L, P567L, F603L

- binding result [2]: binds
- binding result [3]: binds
B1: humanized MAb1 antibody H-1140 (antibody, human IgG2, kappa, V domains shown)
VH: EVQLVESGGGLVQPGGSLRLSCAASGFTFSTYAMSWVRQAPGKGLEWVATISQGGTYTYYPDSVKGRFTISRDNAKNTLYLQMNSLRAEDTAVYYCARLIYYDYLDYWGQGTLVTVSS
VL: DIVMTQSPLSLPVTLGEPASISCRSSQSLENSNGNTYLNWYLQKPGQSPQLLIYRVSNRFSGVPDRFSGSGSGTDFTLKISRVEAEDVGVYYCLQVTHVPWTFGPGTKVDIKR
notes: Human IgG2 / kappa constant regions; also called hMAb1-H2-type heavy chain + hMAb1-L1-type light chain
- binding result [1]: no binding (tested: 10 µg/mL (method of 4)-3-2))
